In US20240279288A1, “APPLICATION OF PLANT JAZ PROTEINS AND DERIVED POLYPEPTIDES IN PREVENTION AND TREATMENT OF HUMAN AND ANIMAL TUMORS” (ANYANG INSTITUTE OF SINO-COTTON INDUSTRY INNOVATION, priority 2021, published 2024):

B1: GhJAZ1 after deletion of ZIM domain: GhJAZ1 mutant with ZIM domain deleted, protein sequence SEQ ID No. 85 (protein)
chain: MSSCSESTAMKPARSPEKPSFAQTCNLLSQYLKEKGSFGDLSLGMTCNVEANGTPVVPPPTMNLFPLNDKSDDVCGRNGGNPKNLTSMDLFPQQAGLASKDDSPNKLEPQTASSSQSNNSFNPIPFTSSIARSPIESSIGVPPTSKPVHPAQRAVPGDLPIARRASLHRFLEKRKDRITAKAPYQINNSAAAPSLSGDNKSWLGLAAQSP
B2: GhJAZ9: cotton JAZ9 protein, sequence SEQ ID No. 2, highest homology to AtJAZ9 (protein)
chain: MERDFLGLNSNEPLAVVKDDVNTDKYKQIGFTKSSGIQWPFSNKVFAVPQLMNFNFAQGDKTKKTGYDSKVSPLFMPISTMDASELQKSFNHNWNGGGHFSLTDSHVQHNTNMFPASNQTISVSGSNPFVKNHFTTTGQNFPANTIKPQFLGGVPVTTPHSVLPTLGTVGGSVEPCAQTSGSPAQLTIFYAGEVNVFDDITPEKAQAIMFLAGNGSSMASNSAYPKPPVQTPILKPVQVDSVPANQLINTQLSFGMPSPLPVSSHAGMQSWSGSTSTEEQIICKASVPPTPSTPISKLESPNLVNTMGSDAATGMMPSVPQARKASLARFLEKRKGRIMSTASPYNLISKKSLDYATTMESNA
B3: GhJAZ1 after deletion of Jas domain: GhJAZ1 mutant with Jas domain deleted, protein sequence SEQ ID No. 87 (protein)
chain: MSSCSESTAMKPARSPEKPSFAQTCNLLSQYLKEKGSFGDLSLGMTCNVEANGTPVVPPPTMNLFPLNDKSDDVCGRNGGNPKNLTSMDLFPQQAGLASKDDSPNKLEPQTAPMTIFYGGQVIVFNDFPANKAKEIMLLASNSSSQSNNSFNPIPFTSSIARSPIESSIGVPPTSKPVHPAQRAVPGNNSAAAPSLSGDNKSWLGLAAQSP

How the values were obtained:
Type in all cases: binding, cotton
[1] = tested on: GhMYC2; test: Yeast two hybrid with GhMYC2
Chain of GhMYC2 (as listed by the source): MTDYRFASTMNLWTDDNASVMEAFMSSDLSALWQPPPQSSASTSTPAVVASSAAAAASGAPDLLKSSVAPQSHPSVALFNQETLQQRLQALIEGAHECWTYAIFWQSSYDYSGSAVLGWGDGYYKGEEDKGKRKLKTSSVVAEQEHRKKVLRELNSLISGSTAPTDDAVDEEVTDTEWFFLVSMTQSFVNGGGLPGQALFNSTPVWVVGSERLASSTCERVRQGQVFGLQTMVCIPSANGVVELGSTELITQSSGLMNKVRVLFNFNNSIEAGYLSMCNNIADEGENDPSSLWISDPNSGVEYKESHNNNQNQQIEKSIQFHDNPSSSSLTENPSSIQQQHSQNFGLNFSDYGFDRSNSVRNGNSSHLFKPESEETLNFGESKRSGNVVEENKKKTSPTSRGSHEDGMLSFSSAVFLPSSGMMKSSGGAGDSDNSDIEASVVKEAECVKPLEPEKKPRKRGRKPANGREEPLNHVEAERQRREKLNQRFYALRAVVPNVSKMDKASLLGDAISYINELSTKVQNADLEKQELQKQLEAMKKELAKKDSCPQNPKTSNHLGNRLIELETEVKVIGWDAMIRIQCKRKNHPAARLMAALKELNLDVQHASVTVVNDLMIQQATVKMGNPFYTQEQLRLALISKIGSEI
Procedure: (§1) The study on Arabidopsis had shown that the inhibition of JAZ protein on JA signaling was mainly achieved by inhibiting the transcription factor function of MYC, which had been experimentally verified by us in cotton. Based on the phylogenetic tree of Arabidopsis and cotton JAZs, we screened 6 cotton JAZs (GhJAZ1, GhJAZ7, GhJAZ9, GhJAZ10, GhJAZ11 and GhJAZ31), which were analyzed with GhMYC2, GhNINJA, GhTPL, GhHDA6, and GhCOI1 for yeast two hybrid. The amino acid sequence of GhJAZ1 was set forth in SEQ ID No. 4, and the corresponding encoding gene sequence was set forth in SEQ ID No. 39; the amino acid sequence of GhJAZ7 was set forth in SEQ ID No. 7, and the corresponding encoding gene sequence was set forth in SEQ ID No. 42; the amino acid sequence of GhJAZ9 was set forth in SEQ ID No. 2, and the corresponding encoding gene sequence was set forth in SEQ ID No. 37; the amino acid sequence of GhJAZ10 was set forth in SEQ ID No. 3, and the corresponding encoding gene sequence was set forth in SEQ ID No. 38; the amino acid sequence of GhJAZ11 was set forth in SEQ ID No. 5, and the corresponding encoding gene sequence was set forth in SEQ ID No. 40; and the amino acid sequence of GhJAZ31 was set forth in SEQ ID No. 9, and the corresponding encoding gene sequence was set forth in SEQ ID No. 44. The amino acid sequence of GhMYC2 was set forth in SEQ ID No. 71, and the corresponding encoding gene sequence was set forth in SEQ ID No. 72; the amino acid sequence of GhNINJA was set forth in SEQ ID No. 73, and the corresponding encoding gene sequence was set forth in SEQ ID No. 74; the amino acid sequence of GhTPL was set forth in SEQ ID No. 75, and the corresponding encoding gene sequence was set forth in SEQ ID No. 76; the amino acid sequence of GhHDA6 was set forth in SEQ ID No. 77, and the corresponding encoding gene sequence was set forth in SEQ ID No. 78; and the amino acid sequence of GhCOI1 was set forth in SEQ ID No. 79, and the corresponding encoding gene sequence was set forth in SEQ ID No. 80. […]

[2] = tested on: GhCOI1; test: Yeast two hybrid with GhCOI1; conditions: in the presence of JA-Ile
Chain of GhCOI1 (as listed by the source): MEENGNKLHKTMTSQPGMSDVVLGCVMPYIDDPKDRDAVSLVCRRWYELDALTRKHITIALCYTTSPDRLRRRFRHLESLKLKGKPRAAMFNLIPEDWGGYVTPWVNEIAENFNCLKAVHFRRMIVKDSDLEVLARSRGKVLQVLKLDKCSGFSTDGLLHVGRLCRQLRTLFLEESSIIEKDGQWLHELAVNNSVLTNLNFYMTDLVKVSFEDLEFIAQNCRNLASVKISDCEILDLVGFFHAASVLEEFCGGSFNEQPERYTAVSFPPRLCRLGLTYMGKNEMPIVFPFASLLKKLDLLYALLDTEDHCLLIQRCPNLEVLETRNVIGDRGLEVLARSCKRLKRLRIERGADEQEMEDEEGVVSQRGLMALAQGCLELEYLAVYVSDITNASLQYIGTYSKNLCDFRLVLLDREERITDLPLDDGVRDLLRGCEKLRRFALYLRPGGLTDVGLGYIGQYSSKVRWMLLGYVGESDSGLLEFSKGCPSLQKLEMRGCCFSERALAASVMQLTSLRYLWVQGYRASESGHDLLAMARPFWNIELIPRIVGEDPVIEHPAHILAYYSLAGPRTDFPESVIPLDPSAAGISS
Procedure: as §1

[3] = tested on: GhNINJA; test: Yeast two hybrid with GhNINJA
Chain of GhNINJA (as listed by the source): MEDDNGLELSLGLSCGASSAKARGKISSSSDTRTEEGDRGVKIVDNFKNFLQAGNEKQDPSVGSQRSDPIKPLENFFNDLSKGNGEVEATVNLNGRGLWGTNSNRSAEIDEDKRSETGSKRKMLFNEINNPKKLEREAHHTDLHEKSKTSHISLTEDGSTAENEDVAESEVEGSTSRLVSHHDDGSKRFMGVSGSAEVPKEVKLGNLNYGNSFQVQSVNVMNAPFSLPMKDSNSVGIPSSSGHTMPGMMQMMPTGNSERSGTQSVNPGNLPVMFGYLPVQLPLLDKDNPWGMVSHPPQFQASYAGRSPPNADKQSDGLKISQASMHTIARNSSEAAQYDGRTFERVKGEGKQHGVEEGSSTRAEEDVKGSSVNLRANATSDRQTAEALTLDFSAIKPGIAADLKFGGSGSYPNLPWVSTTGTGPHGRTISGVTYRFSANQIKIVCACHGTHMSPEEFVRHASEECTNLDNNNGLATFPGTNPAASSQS
Procedure: as §1, with “44.” for “44. The amino acid sequence of GhMYC2 was set forth in SEQ ID No. 71, and the corresponding encoding gene sequence was set forth in SEQ ID No. 72; the amino acid sequence of GhNINJA was set forth in SEQ ID No. 73, and the corresponding encoding gene sequence was set forth in SEQ ID No. 74; the amino acid sequence of GhTPL was set forth in SEQ ID No. 75, and the corresponding encoding gene sequence was set forth in SEQ ID No. 76; the amino acid sequence of GhHDA6 was set forth in SEQ ID No. 77, and the corresponding encoding gene sequence was set forth in SEQ ID No. 78; and the amino acid sequence of GhCOI1 was set forth in SEQ ID No. 79, and the corresponding encoding gene sequence was set forth in SEQ ID No. 80.”

[4] = tested on: GhMYC2; test: Luciferase experiment in tobacco leaves with GhMYC2; conditions: no fluorescence on the control
Text: Method of the luciferase experiment: GhJAZ1 (corresponding encoding gene sequence set forth in SEQ ID No. 39) was subcloned into pCAMBIA-CLuc vector (Chen, H., et al. “Firefly Luciferase Complementation Imaging Assay for Protein-Protein Interactions in Plants.” Plant Physiology 146.2(2008):368-376.) between KpnI and SalI cleavage sites, and the transcription factors such as GhMYC2 (corresponding encoding gene sequence set forth in SEQ ID No. 72), GhNINJA (corresponding encoding gene sequence set forth in SEQ ID No. 74), and GhCOI1 (corresponding encoding gene sequence set forth in SEQ ID No. 80) were subcloned into pCAMBIA-NLuc (Chen, H., et al. “Firefly Luciferase Complementation Imaging Assay for Protein-Protein Interactions in Plants.” Plant Physiology 146.2(2008):368-376.) between KpnI and SalI cleavage sites, respectively. […] Luciferase substrates were applied at the infected leaves before taking images and placed in a dark room for at least 6 min to quench fluorescence, followed by observation on the Nightowl-II LB983 instrument, using IndigoBasic software under the luciferase-5 min setting conditions.

[5] = tested on: GhTPL; test: Yeast two hybrid with GhTPL
Chain of GhTPL (as listed by the source): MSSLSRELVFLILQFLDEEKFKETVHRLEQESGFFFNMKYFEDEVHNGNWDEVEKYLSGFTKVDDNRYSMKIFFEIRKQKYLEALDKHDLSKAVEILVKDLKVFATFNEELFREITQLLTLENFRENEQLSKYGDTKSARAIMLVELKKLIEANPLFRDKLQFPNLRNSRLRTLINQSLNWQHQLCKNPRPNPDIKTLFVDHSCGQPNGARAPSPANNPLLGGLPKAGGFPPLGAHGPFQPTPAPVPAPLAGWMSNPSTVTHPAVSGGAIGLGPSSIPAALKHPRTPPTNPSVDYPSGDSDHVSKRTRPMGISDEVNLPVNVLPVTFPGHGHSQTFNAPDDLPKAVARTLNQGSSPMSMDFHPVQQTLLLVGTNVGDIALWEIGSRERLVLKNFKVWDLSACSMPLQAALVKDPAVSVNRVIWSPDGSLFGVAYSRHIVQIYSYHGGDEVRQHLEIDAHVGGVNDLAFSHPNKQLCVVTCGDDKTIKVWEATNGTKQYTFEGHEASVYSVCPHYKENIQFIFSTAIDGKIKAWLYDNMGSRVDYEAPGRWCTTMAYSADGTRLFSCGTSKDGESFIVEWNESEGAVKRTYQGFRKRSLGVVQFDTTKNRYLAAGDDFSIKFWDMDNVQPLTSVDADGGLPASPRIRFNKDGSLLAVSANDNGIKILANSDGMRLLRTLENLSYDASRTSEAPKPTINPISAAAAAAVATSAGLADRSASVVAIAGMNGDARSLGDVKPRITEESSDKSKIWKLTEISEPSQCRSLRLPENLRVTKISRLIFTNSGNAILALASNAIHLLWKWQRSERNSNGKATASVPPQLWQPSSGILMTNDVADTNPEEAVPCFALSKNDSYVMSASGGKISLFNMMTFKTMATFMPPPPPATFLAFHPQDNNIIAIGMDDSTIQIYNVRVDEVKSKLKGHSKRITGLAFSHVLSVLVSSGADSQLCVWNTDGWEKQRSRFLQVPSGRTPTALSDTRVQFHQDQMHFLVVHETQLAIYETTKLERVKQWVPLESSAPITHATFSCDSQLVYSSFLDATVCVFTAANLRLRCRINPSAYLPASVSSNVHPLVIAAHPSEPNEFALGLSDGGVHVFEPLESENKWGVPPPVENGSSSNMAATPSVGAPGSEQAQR
Procedure: as §1

fluorescence with GhMYC2 after applying luciferase substrate [4]	Molecule	interaction with GhMYC2 [1]	interaction with GhCOI1 [2]	interaction with GhNINJA [3]	interaction with GhTPL [5]
–	B1	significantly weakened	significantly weakened	significantly weakened	–
weaker fluorescence	B2	weak	–	–	–
–	B3	–	significantly weakened	–	significantly weakened
